The subject of data set [1] is isolated rat liver mitochondria. The data set is described as follows: Hypoxic inhibition of respiration of isolated mitochondria. In kind it is cell-based. Particulars: for inhibition of respiration, incubated alone (in words): nitrite 20 μM or protein 5 μM alone; for inhibition of respiration (cyanide = 100%): 5 μM protein with 20 μM nitrite, hypoxia. The protocol:
(§1) Mitochondria were isolated from the livers of male Sprague Dawley rats and incubated with wild-type or mutant Ngb proteins in a sealed, stirred chamber at 37° C. State 3 respiration was stimulated with succinate (15 mM) and ADP (1 mM) and oxygen consumption was measured with a Clark-type oxygen electrode. To measure inhibition of respiration in hypoxic conditions, respiring mitochondria were allowed to consume oxygen until the chamber became anoxic and then the chamber lid was removed to allow the diffusion of air back into the chamber. The rate of mitochondrial respiration was greater than the rate of oxygen entering the chamber such that the oxygen electrode trace remained at zero while the mitochondria were respiring. Nitrite was added to the chamber prior to the removal of the lid and deviation of the oxygen trace from a zero reading signified a decrease in respiration rate. All experiments were performed under conditions where substrates were not limiting. The extent of respiratory inhibition was quantified by measuring the time from equilibration of the mitochondria with air to the time when the oxygen trace deviated from zero. This time to inhibition was expressed as a percentage of maximal inhibition, where 100% inhibition was defined as the time to inhibition in the presence of cyanide and the time to the exhaustion of substrates was used as a measure of 0% inhibition. Similar experiments were performed with SHSY5Y cells suspended in the respirometer and treated with the uncoupler FCCP (5 μM) to measure hypoxic inhibition of cellular respiration.

Data set [2] is described as follows: Anaerobic reaction of deoxygenated globins with excess nitrite (nitrite reductase kinetics, absorption / stopped-flow spectroscopy). Particulars: for relative percentage of the total absorbance change (Soret peak 425 nm) in the first 60 minutes: 1 mM nitrite, 0.1 M HEPES pH 7.4, H64L-Ngb normalized to 100%; for rate of nitrite reduction (in words): cysteine to alanine mutants. Type of data set: biochemical. The protocol: Oxygen contamination was prevented by application of positive argon pressure without a channel for gas escape. Concentrations of single species during reactions were determined by least squares deconvolution of the visible absorption spectrum into standard reference spectra using Microsoft Excel analysis. OxyNgb was included to confirm successful deoxygenation before the reaction. […] Fast kinetic studies were performed using an Applied Photophysics DX-17 stopped-flow instrument equipped with rapid-scanning diode array detection. […] To determine bimolecular rate constants all reactions were analyzed with Pro-K software (Applied Photophysics) using singular value decomposition followed by fitting of the reduced data matrix to a pseudo-first order kinetic model.

The conditions of data set [3]: cited from earlier work.
Data set [4] in a line: Determination of nitrite binding constants to met-Ngb (difference spectra titration). The note with it: met-Ngb 10 μM, 200 mM phosphate buffer, pH 7.4, 25° C.; read-out: Kd (NO2^−). The protocol: To determine the binding constant of nitrite to metNgb, 10 μM wild type and mutant Ngb in 200 mM phosphate buffer, pH 7.4, were incubated in a cuvette at 25° C. with increasing concentrations of nitrite and the UV—visible spectra were recorded after each increase in nitrite concentration. The constant KD for each protein was determined by interpolation of the absorbance data following procedures in Nicolis et al. (Biochem J 407:89-99, 2007).

Data set [5] can be described thus: Reaction of met-Ngb with nitrite to produce nitrosyl-Ngb (nitrite ferric heme reduction). In kind it is biochemical. The note with it: met-Ngb with nitrite in the presence of dithionite.
A short description of data set [6]: Midpoint redox potential of the thiol/disulfide couple in Ngb (GSH/GSSG gradient, Nernst fit of kobs). In kind it is physicochemical. Particulars: 37° C., 0.1 M phosphate buffer pH 7.0, GSH/GSSG. How it is done: Wild-type and C55A mutant Ngb (50-60 μM) were incubated at 37° C. in anaerobic glove box with solutions containing various ratios of reduced (GSH) and oxidized (GSSG) glutathione, with the total GSH and GSSG concentration fixed at 25 mM in 0.1 M phosphate buffer pH=7.0. The GSH/GSSG ratio was varied to establish a gradient of redox potentials between −130 and −250 mV, calculated by the Nernst equation according to a midpoint reduction potential of −240 mV (Yi et al., J Biol Chem 284:20556-20561, 2009). After at least 1 hour incubation, glutathione was removed by passage through a G25 column and Ngb was reacted immediately with 10 mM nitrite in 0.1 M phosphate buffer pH=7.0 as described above. The observed rate constant determined at each glutathione ratio was fitted using the Nernst equation and the midpoint reduction potential of the thiol/disulfide couple of Ngb calculated.

A further data set has as its system SHSY5Y cells. Description: Hypoxic inhibition of cellular respiration in SHSY5Y cells expressing Ngb. The note with it: cells stably transfected with GFP-tagged Ngb, nitrite added, FCCP. In kind it is cell-based. The protocol: as §1, with “Similar experiments were performed with SHSY5Y cells suspended in the respirometer and treated with the uncoupler FCCP (5 μM) to measure hypoxic inhibition of cellular respiration.” left out

For data set [7] the following is noted: cited from earlier work. The source holds these as a separate data set.
Data set [8] in a line: EPR spectroscopy of iron-nitrosyl-heme formation from nitrite. Type of data set: biochemical. Particulars: 1 mM nitrite, 40±5 μM protein. How it is done:
Iron nitrosyl species were measured by EPR spectroscopy using a Bruker EMX 10/12 spectrometer operating at 9.4 GHz, 5-G modulation, 10.1-milliwatt power, 327.68-ms time constant and 163.84-s scan over 600 G at 110 K as described previously (Basu et al., J Biol Chem 283:32590-32597, 2008; Azarov et al., J. Biol. Chem. 280:[…], 2005). The concentrations of Mb and Ngb species were determined by performing the double integral calculation and comparing to standard samples.

The conditions of data set [9]: nitrite 7-230 μM; cited from earlier work.
A short description of data set [10]: Direct measurement of NO release in gas phase (chemiluminescence). Particulars: 20 μM Ngb, 1 mM nitrite, anaerobic. In kind it is biochemical. An excerpt:
Once a stable baseline was established Ngb was reacted with a known amount of nitrite as previously described (Huang et al., J Clin Invest 115:2099-2107, 2005).

By Kd is commonly meant the concentration at which binding is half-saturated.

Read-outs that look alike come from different tables or passages of the source.

As to `O=NO` [nitrite, reference compound], in data set [1], the “inhibition of respiration, incubated alone (in words)” value is “No significant inhibition”.

B1: Myoglobin: horse heart myoglobin, purified by Sephadex G-25 gel filtration (protein, UniProt P68082 2-154, looked up)
Myoglobin: GLSDGEWQQVLNVWGKVEADIAGHGQEVLIRLFTGHPETLEKFDKFKHLKTEAEMKASEDLKKHGTVVLTALGGILKKKGHHEAELKPLAQSHATKHKIPIKYLEFISDAIIHVLHSKHPGDFGADAQGAMTKALELFRNDIAAKYKELGFQG
Turning to B1, the “BRC of myoglobin reaction with nitrite” value in data set [2] (100 mM phosphate buffer with EDTA, pH 7.4, 25° C.) amounted to 2.9 ± 0.2 M⁻¹ s⁻¹.

B2: neuroglobin: heme containing, monomeric, 16.9 kDa protein; literature values of the background section (protein, listed as Homo sapiens)
chain: MERPEPELIRQSWRAVSRSPLEHGTVLFARLFALEPDLLPLFQYNCRQFSSPEDCLSSPEFLDHIRKVMLVIDAAVTNVEDLSSLEEYLASLGRKHRAVGVKLSSFSTVGESLLYMLEKCLGPAFTPATRAAWSQLYGAVVQAMSRGWDGE
For B2, the “oxygen affinity P50” value in [3] (20° C.) is reported as 1-2 mmHg; in data set [3] (after disulfide bond formation) it was roughly 1 mmHg; in data set [3] (before disulfide bond formation), “about 9 mmHg”.

B3: WT SS: recombinant wild-type human neuroglobin (SEQ ID NO: 8), as purified with the C46-C55 disulfide bond formed (protein, listed as Homo sapiens)
chain: MERPEPELIRQSWRAVSRSPLEHGTVLFARLFALEPDLLPLFQYNCRQFSSPEDCLSSPEFLDHIRKVMLVIDAAVTNVEDLSSLEEYLASLGRKHRAVGVKLSSFSTVGESLLYMLEKCLGPAFTPATRAAWSQLYGAVVQAMSRGWDGE
modifications: C46-C55 disulfide
As for B3, the equilibrium dissociation constant (Kd) in data set [4] worked out at 6.2 ± 2.1 mM. In addition, in data set [5], the “BRC of nitrite ferric heme reduction” value was determined as 0.0005 ± 0.0005. The “midpoint redox potential of the C46/C55 thiol/disulfide couple” value in data set [6] was −194±3 mV. In addition, in the data set with SHSY5Y cells, the “extent of respiration inhibition compared to cyanide” value is on record as “about 15%”. For the same molecule, the “kon of NO for the ferrous Ngb heme” value in data set [7] is listed as 10^8 M^−1 s^−1. The “relative percentage of the total absorbance change (Soret peak 425 nm) in the first 60 minutes” value in data set [2] turned out to be 38%. Moreover, in [2] (10 mM nitrite, 10 μM deoxy-Ngb, 3 mM dithionite, pH 7.4, 100 mM phosphate buffer), the “calculated BRC in the presence of dithionite” value is 0.11 ± 0.01 M⁻¹ s⁻¹. For the same molecule, the “second-order bimolecular rate constant from linear fit of kobs versus nitrite concentration” value in data set [2] (nitrite 0.25-20 mM, 100 mM phosphate buffer, 25° C.) was 0.12 ± 0.02 M⁻¹ s⁻¹. For the same molecule, in [2] (pH 6.5-8.0), the “acceleration of the reaction for each pH unit decrease” value worked out at 10 fold and the “slope of linear fit, order of rate dependence on [H^+]” value turned out to be 0.96. In addition, in data set [2] (pH 7.4, 25° C., 10 μM deoxy-Ngb, 10 mM nitrite, no dithionite), the “instantaneous bimolecular rate constant (BRC) of reaction of nitrite with Ngb” value was found to be 0.12 ± 0.02 M⁻¹ s⁻¹. In addition, the “instantaneous bimolecular rate constant (BRC) of reaction of nitrite with Ngb” value in [2] (pH 7.4, 37° C.) is 0.26 ± 0.02 M⁻¹ s⁻¹. Besides, in [1], the “inhibition of respiration (cyanide = 100%)” value is 78±6% and the “inhibition of respiration, incubated alone (in words)” value was “No significant inhibition”.

B4: WT SH: wild-type human neuroglobin without disulfide bond, cysteines reduced by incubation with 10 mM DTT (protein, UniProt Q9NPG2 1-151, looked up)
Neuroglobin: MERPEPELIRQSWRAVSRSPLEHGTVLFARLFALEPDLLPLFQYNCRQFSSPEDCLSSPEFLDHIRKVMLVIDAAVTNVEDLSSLEEYLASLGRKHRAVGVKLSSFSTVGESLLYMLEKCLGPAFTPATRAAWSQLYGAVVQAMSRGWDGE
modifications: cysteines reduced with DTT
notes: wild-type human neuroglobin without disulfide bond, cysteines reduced by incubation with 10 mM DTT
As to B4, the Kd in data set [4] worked out at 12.6 ± 3.3 mM. The “BRC of nitrite ferric heme reduction” value in data set [5] turned out to be 0.0002 ± 0.0005. Besides, the “relative percentage of the total absorbance change (Soret peak 425 nm) in the first 60 minutes” value in [2] worked out at 20%. Also, the “rate of nitrite reduction after reduction of the disulfide bond” value in [2] (cysteines reduced with 10 mM DTT, 25° C., pH 7.4) amounted to 0.062 ± 0.005 M⁻¹ s⁻¹. For the same molecule, in data set [2] (relative to oxidized wild type, 25° C., pH 7.4), the “slowing of nitrite reduction rate by reduction of the disulfide bond” value was “about 2 fold”. Further, in [8], the “rate of iron-nitrosyl-Ngb / NO formation by EPR (in words)” value is listed as “slowed the rate of iron-nitrosyl-Ngb formation”.

B5: mouse neuroglobin: deoxy mouse neuroglobin of a cited study (Petersen et al., 2008) (protein, UniProt Q9ER97 1-151, looked up)
Neuroglobin: MERPESELIRQSWRVVSRSPLEHGTVLFARLFALEPSLLPLFQYNGRQFSSPEDCLSSPEFLDHIRKVMLVIDAAVTNVEDLSSLEEYLTSLGRKHRAVGVRLSSFSTVGESLLYMLEKCLGPDFTPATRTAWSRLYGAVVQAMSRGWDGE
For B5, the “apparent second-order rate constant” value in [9] was 5.1 ± 0.4 M⁻¹ s⁻¹.

B6: C55A: recombinant human neuroglobin mutant with cysteine 55 replaced by alanine, six-coordinate (protein, UniProt Q9NPG2 1-151, looked up, variant C55A)
Neuroglobin: MERPEPELIRQSWRAVSRSPLEHGTVLFARLFALEPDLLPLFQYNCRQFSSPEDALSSPEFLDHIRKVMLVIDAAVTNVEDLSSLEEYLASLGRKHRAVGVKLSSFSTVGESLLYMLEKCLGPAFTPATRAAWSQLYGAVVQAMSRGWDGE
For B6, the Kd in data set [4] was found to be 30.1 ± 4.5 mM. In addition, the “BRC of nitrite ferric heme reduction” value in data set [5] is on record as 0.0002 ± 0.0005. In addition, in data set [2], the “relative percentage of the total absorbance change (Soret peak 425 nm) in the first 60 minutes” value was found to be 18% and the “rate of nitrite reduction (in words)” value is reported as “slowed down the rate of nitrite reduction to similar rates observed with Ngb having fully reduced cysteines”. Moreover, the “rate of NO detected in gas phase (in words)” value in [10] was “significantly decreased”. For the same molecule, in [1], the “inhibition of respiration (cyanide = 100%)” value amounted to 62±4%.

B7: C46A: recombinant human neuroglobin mutant with cysteine 46 replaced by alanine (protein, UniProt Q9NPG2 1-151, looked up, variant C46A)
Neuroglobin: MERPEPELIRQSWRAVSRSPLEHGTVLFARLFALEPDLLPLFQYNARQFSSPEDCLSSPEFLDHIRKVMLVIDAAVTNVEDLSSLEEYLASLGRKHRAVGVKLSSFSTVGESLLYMLEKCLGPAFTPATRAAWSQLYGAVVQAMSRGWDGE
As for B7, in data set [2], the “rate of nitrite reduction (in words)” value is “slowed down the rate of nitrite reduction to similar rates observed with Ngb having fully reduced cysteines”.

These data come from patent US9114109B2, “Five-coordinate neuroglobin and use thereof as a blood substitute” (University of Pittsburgh—Of the Commonwealth System of …, priority 2009, dated 2015).
